Here are results for one substance from paper PMC9191346.

This assay deals with enhanced green fluorescent protein-labeled BLM (BLM-eGFP) (not stated (Gallus gallus or human BLM cloned)). The experiment in a line: optical tweezers with confocal fluorescence microscopy.

In the case of “enhanced green fluorescent protein-labeled BLM (BLM-eGFP) (domain or fragment)”, the rupture force of the DNA tether bridged by the oligomeric BLM is < 300 pN.
